Source: patent publication US20200040086A1 (BERLIN CHEMIE, published 2020)

How the values were obtained:
[1] = target: T1, LY75 (DEC-205) on COLO205 cells (human, UniProt O60449 28-1722); experiment: competitive FACS on COLO205 cells
T1 construct: also called Lymphocyte antigen 75
Description: COLO205 cells (ATCC, catalog # CCL-222) were detached from tissue culture flasks with Cell Stripper (Cellgro, catalog # MT-25-056CI). Cells were washed and resuspended in FACS buffer (PBS+2% FBS), neutralized with growth media, and counted. Cells were plated at 50,000 cells per well in a V Bottom 96-well plate. Cells were washed once with FACS buffer (PBS (Fisher, catalog # SH30028-03)+2% FBS). An anti-LY75-mAb (Selected from Example 1) or LY75_A1 was added to wells starting at 250 nM and diluted serially 3 fold and applied to the relevant wells for 45 minutes on ice. Test wells that required single or multiple staining steps were left in FACS buffer as appropriate to ensure the final staining was completed simultaneously for all conditions tested. Two wells were left unstained in FACS buffer as controls.
After the incubation with blocking antibody, cells were washed twice in FACS buffer. The cells were resuspended in FACS buffer containing the anti-LY75-mAb conjugated to MCC-DM1 (1 nM) and incubated on ice for 45 minutes. The cells were washed as above and resuspended in FACS buffer plus 1 ug/ml mouse anti-maytansine antibody and incubated in ice for 45 minutes. […] Mean fluorescence intensity of each sample was determined using a Guava EasyCyte Plus HT Flow Cytometer (96 well plate formats) and the raw data was analyzed using the Guava Cytosoft.

PWRRGWHF = target: T2, PWRRGWHF; experiment: peptide microarray of 8mer LY75 peptides, LY75_A1 at 1 µg/mL, anti-human IgG Alexa 647
T2 construct: 8mer of LY75 on the peptide microarray, chart Region 3
T2 peptide: PWRRGWHF
Description: (§1) The peptide microarray analysis was performed by LC Sciences, Houston Tex., in brief the method comprised the following steps:—Contiguous 8mer peptides of LY75 protein having […] spanning residues 216 to 1666 of the full length LY75 protein were synthesized and immobilized on a microarray chip. The chip comprised three panels such that the experiment was performed in triplicate. The microarray was addressed with LY75_A1 to identify the peptides to which the antibody bound. The binding assay was performed under the following conditions:—
(§2) The microarray comprising the contiguous peptides in triplicate was washed with 1 mL of binding buffer at 4° C. for 20 min. It was then incubated with 1 μg/mL LY75_A1 in binding buffer (pH 7.0) at 4° C. for 2 hrs. The array was again washed with 0.5 mL of washing buffer at 4° C. for 30 min then incubated with 25 ng/mL anti-human IgG Alexa 647 conjugate in binding buffer (pH 7.0) at 4° C. for 1 hr. The array was again washed with 0.5 mL of washing buffer at 4° C. for 30 min.

RRGWHFYD = target: T3, RRGWHFYD; experiment: as above
T3 construct: 8mer of LY75 on the peptide microarray, chart Region 3
T3 peptide: RRGWHFYD
Description: as §1, §2

DDHFTYSR = target: T4, DDHFTYSR; experiment: as above
T4 construct: 8mer of LY75 on the peptide microarray, chart Region 4
T4 peptide: DDHFTYSR
Description: as §1, §2

PWHRFPVT = target: T5, PWHRFPVT; experiment: as above
T5 construct: 8mer of LY75 on the peptide microarray, chart Region 4
T5 peptide: PWHRFPVT
Description: as §1, §2

HRFPVTFG = target: T6, HRFPVTFG; experiment: as above
T6 construct: 8mer of LY75 on the peptide microarray, chart Region 4
T6 peptide: HRFPVTFG
Description: as §1, §2

YSNFHPLL = target: T7, YSNFHPLL; experiment: as above
T7 construct: 8mer of LY75 on the peptide microarray, chart Region 5
T7 peptide: YSNFHPLL
Description: as §1, §2

SCSERHFV = target: T8, SCSERHFV; experiment: as above
T8 construct: 8mer of LY75 on the peptide microarray, chart Region 6
T8 peptide: SCSERHFV
Description: as §1, §2

VYFHQHSI = target: T9, VYFHQHSI; experiment: as above
T9 construct: 8mer of LY75 on the peptide microarray, chart Region 8
T9 peptide: VYFHQHSI
Description: as §1, §2

KKLSRLTY = target: T10, KKLSRLTY; experiment: as above
T10 construct: 8mer of LY75 on the peptide microarray, chart Region 9
T10 peptide: KKLSRLTY
Description: as §1, §2

KLSRLTYS = target: T11, KLSRLTYS; experiment: as above
T11 construct: 8mer of LY75 on the peptide microarray, chart Region 9
T11 peptide: KLSRLTYS
Description: as §1, §2

LSRLTYSS = target: T12, LSRLTYSS; experiment: as above
T12 construct: 8mer of LY75 on the peptide microarray, chart Region 9
T12 peptide: LSRLTYSS
Description: as §1, §2

NGSRWIQY = target: T13, NGSRWIQY; experiment: as above
T13 construct: 8mer of LY75 on the peptide microarray, chart Region 10
T13 peptide: NGSRWIQY
Description: as §1, §2

SRWIQYKG = target: T14, SRWIQYKG; experiment: as above
T14 construct: 8mer of LY75 on the peptide microarray, chart Region 10
T14 peptide: SRWIQYKG
Description: as §1, §2

RWIQYKGH = target: T15, RWIQYKGH; experiment: as above
T15 construct: 8mer of LY75 on the peptide microarray, chart Region 10
T15 peptide: RWIQYKGH
Description: as §1, §2

QYKGHCYK = target: T16, QYKGHCYK; experiment: as above
T16 construct: 8mer of LY75 on the peptide microarray, chart Region 10
T16 peptide: QYKGHCYK
Description: as §1, §2

YKGHCYKS = target: T17, YKGHCYKS; experiment: as above
T17 construct: 8mer of LY75 on the peptide microarray, chart Region 10
T17 peptide: YKGHCYKS
Description: as §1, §2

KGHCYKSD = target: T18, KGHCYKSD; experiment: as above
T18 construct: 8mer of LY75 on the peptide microarray, chart Region 10
T18 peptide: KGHCYKSD
Description: as §1, §2

Measured: binding result

T1 sequence (O60449 28-1722 limits assumed): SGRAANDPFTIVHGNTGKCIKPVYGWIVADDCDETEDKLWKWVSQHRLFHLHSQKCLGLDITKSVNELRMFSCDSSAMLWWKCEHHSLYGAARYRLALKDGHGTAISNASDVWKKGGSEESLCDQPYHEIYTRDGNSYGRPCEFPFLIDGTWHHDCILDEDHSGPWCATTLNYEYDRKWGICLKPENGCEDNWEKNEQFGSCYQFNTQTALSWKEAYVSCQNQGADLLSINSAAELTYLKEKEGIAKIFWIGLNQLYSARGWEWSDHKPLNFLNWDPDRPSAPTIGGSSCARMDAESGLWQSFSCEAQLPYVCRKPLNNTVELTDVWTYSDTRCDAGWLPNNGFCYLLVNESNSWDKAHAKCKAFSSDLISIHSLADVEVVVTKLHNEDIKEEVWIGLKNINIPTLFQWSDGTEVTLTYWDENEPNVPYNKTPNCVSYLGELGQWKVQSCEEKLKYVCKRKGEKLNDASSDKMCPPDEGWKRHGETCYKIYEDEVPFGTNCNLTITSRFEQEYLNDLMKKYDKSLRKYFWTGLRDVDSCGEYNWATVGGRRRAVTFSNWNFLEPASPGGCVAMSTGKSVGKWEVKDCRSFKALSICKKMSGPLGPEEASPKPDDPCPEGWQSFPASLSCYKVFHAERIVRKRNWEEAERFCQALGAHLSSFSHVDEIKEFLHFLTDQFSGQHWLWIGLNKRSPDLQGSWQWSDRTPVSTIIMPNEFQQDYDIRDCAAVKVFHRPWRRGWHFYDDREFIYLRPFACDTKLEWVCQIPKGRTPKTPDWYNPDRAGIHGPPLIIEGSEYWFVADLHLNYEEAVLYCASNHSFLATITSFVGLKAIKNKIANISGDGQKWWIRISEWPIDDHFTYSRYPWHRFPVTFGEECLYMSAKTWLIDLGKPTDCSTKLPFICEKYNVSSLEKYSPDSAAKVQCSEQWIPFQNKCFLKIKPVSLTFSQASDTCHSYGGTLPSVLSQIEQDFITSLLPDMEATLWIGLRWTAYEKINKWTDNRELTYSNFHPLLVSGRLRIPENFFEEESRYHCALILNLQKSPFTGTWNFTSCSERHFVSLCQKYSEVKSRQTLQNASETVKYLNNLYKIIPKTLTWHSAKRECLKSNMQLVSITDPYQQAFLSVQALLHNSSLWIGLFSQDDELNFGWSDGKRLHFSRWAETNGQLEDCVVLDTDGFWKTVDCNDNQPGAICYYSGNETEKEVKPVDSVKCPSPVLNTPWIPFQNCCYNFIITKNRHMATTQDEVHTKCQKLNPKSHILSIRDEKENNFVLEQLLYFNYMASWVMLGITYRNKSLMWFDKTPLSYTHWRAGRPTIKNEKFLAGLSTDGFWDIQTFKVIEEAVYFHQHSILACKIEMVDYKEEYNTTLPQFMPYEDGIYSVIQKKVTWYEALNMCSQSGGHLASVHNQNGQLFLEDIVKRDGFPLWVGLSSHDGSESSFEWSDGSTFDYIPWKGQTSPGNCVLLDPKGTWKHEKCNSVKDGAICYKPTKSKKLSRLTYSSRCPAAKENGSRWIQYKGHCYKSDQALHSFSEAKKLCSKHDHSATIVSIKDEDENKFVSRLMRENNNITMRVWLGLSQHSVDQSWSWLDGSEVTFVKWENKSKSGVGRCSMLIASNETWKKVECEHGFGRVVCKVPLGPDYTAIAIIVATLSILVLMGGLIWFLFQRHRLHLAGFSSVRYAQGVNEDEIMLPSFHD

B1: LY75_A1 (antibody, V domains shown)
VH: EVQLVESGGGLVKPGGSLRLSCAASGFTYSNAWMSWVRQAPGKGLEWVGRIKSKTDGGTTDYAAPVQGRFTISRDDSKNTLYLQMNSLKTEDTAVYYCTIFGVVSFDYWGQGTLVTVSS
VL: DVQMTQSPSSLSASVGDRVTITCRASQSISDYLSWYQQRPGKAPNLLIYAASNLKTGVPSRFSGSGSGTDFTLTISTLQPEDFATYYCQQSYRSPWTFGQGTKVEIKR
notes: detected with anti-human IgG in the microarray; also called antibody LY75_A1; LY75_A1 monoclonal antibody
binds: all assays above
